The text below walks through data of US20190031734A1 (CHILDREN S MEDICAL CENTER, published 2019).

Experiment [1] has as its target T1, CSPG4 endogenous on HeLa cells (human, UniProt Q6UVK1 30-2322).
T1 construct: whole, on cells
In words: binding to HeLa cells; largely abolished in CSPG4^-/- cells.

Experiment [2] concerns the target T2, FZD2-CRD-Fc, recombinant human protein (ACRO Biosystems) (human, UniProt Q14332 24-190).
T2 construct: domain: cysteine-rich domain (CRD); also called Fc-tagged FZD2-CRD; FZD2-Fc; not shown: Fc tag of the purchased protein
In words: GST pull-down, immunoblot.

T1 sequence (Q6UVK1 30-2322): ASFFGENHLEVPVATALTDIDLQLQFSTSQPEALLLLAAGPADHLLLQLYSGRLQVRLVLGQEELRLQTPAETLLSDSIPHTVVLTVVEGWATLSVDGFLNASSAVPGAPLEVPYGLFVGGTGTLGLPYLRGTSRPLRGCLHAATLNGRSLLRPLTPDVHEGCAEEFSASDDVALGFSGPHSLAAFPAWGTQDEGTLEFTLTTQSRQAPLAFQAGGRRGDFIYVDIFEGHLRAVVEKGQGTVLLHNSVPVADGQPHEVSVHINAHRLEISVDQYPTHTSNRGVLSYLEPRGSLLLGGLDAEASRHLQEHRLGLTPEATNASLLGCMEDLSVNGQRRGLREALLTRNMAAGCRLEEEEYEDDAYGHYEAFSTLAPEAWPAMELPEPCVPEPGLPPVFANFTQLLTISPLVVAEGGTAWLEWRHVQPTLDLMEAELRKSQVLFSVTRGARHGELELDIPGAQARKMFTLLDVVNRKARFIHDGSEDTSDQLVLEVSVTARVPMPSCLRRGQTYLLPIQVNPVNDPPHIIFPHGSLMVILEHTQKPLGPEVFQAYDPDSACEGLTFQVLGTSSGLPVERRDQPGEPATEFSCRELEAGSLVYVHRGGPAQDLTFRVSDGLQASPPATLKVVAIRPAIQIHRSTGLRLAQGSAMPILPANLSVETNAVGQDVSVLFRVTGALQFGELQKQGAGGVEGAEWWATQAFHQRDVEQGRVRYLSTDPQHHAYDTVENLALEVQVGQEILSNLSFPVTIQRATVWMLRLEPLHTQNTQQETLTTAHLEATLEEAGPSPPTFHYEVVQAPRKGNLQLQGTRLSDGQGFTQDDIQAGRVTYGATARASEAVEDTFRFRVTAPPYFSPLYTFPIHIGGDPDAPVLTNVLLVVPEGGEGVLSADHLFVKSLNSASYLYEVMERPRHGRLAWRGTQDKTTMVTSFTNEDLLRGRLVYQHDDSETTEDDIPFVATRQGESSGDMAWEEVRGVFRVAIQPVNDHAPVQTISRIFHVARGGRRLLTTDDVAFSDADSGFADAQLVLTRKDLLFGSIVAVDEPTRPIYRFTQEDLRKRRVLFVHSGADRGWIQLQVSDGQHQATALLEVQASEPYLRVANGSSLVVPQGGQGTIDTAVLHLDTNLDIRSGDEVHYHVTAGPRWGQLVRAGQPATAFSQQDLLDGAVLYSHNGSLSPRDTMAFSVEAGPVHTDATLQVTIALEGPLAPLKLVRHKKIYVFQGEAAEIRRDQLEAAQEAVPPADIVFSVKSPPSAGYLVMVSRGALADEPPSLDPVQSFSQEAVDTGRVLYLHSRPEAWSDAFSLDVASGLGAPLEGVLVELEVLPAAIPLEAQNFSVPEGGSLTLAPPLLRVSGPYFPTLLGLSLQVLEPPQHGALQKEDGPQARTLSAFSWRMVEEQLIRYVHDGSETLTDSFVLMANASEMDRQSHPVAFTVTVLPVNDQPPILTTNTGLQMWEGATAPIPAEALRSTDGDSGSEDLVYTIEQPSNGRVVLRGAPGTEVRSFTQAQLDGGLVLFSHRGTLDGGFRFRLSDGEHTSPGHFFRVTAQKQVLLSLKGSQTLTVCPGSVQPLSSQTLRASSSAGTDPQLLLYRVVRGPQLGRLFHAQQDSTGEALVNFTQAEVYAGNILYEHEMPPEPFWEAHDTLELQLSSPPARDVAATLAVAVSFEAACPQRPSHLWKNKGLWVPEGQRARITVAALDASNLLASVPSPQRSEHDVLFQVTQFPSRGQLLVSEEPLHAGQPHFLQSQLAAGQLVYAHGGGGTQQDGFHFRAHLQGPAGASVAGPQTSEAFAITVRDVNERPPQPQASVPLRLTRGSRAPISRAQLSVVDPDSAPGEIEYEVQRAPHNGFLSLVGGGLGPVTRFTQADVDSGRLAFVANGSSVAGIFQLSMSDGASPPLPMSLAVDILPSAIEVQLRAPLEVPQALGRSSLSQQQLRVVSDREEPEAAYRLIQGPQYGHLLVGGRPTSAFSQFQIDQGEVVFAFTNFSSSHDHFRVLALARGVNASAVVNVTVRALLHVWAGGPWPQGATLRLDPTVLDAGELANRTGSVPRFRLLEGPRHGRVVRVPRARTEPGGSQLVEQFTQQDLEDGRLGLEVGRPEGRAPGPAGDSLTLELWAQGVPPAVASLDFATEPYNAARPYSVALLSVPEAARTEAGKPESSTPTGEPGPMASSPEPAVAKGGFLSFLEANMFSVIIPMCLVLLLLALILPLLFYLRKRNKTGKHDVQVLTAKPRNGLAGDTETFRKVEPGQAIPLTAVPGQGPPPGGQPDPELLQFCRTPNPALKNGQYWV

B1: CROPs fragment of TcdB (TcdB1831-2366) as used in the cell-binding assays (other)
chain: MVSGLIYINDSLYYFKPPVNNLITGFVTVGDDKYYFNPINGGAASIGETIIDDKNYYFNQSGVLQTGVFSTEDGFKYFAPANTLDENLEGEAIDFTGKLIIDENIYYFDDNYRGAVEWKELDGEMHYFSPETGKAFKGLNQIGDYKYYFNSDGVMQKGFVSINDNKHYFDDSGVMKVGYTEIDGKHFYFAENGEMQIGVFNTEDGFKYFAHHNEDLGNEEGEEISYSGILNFNNKIYYFDDSFTAVVGWKDLEDGSKYYFDEDTAEAYIGLSLINDGQYYFNDDGIMQVGFVTINDKVFYFSDSGIIESGVQNIDDNYFYIDDNGIVQIGVFDTSDGYKYFAPANTVNDNIYGQAVEYSGLVRVGEDVYYFGETYTIETGWIYDMENESDKYYFNPETKKACKGINLIDDIKYYFDEKGIMRTGLISFENNNYYFNENGEMQFGYINIEDKMFYFGEDGVMQIGVFNTPDGFKYFAHQNTLDENFEGESINYTGWLDLDEKRYYFTDEYIAATGSVIIDGEEYYFDPDTAQLVISE
As to B1, in experiment [1], the binding result is reported as “binds”.

B2: GST-tagged CROPs region of TcdB (residues 1831-2366) (other)
chain: B1 chain
For B2, in experiment [2], the binding result is “no binding (tested: 10 nM FZD2-CRD-Fc)”.
